How the values were obtained:
[1] = molecular target: T1, biotinylated B7-H3 (B7-H3b), immune checkpoint protein; assay: SPR (BIACORE 8K, single-cycle kinetics, 1:1 fit); biotinylated B7-H3 on a NeutrAvidin chip, peptide as analyte at 7.5-120 nM
T1 sequence (Q5ZPR3 whole entry, species assumed, looked up): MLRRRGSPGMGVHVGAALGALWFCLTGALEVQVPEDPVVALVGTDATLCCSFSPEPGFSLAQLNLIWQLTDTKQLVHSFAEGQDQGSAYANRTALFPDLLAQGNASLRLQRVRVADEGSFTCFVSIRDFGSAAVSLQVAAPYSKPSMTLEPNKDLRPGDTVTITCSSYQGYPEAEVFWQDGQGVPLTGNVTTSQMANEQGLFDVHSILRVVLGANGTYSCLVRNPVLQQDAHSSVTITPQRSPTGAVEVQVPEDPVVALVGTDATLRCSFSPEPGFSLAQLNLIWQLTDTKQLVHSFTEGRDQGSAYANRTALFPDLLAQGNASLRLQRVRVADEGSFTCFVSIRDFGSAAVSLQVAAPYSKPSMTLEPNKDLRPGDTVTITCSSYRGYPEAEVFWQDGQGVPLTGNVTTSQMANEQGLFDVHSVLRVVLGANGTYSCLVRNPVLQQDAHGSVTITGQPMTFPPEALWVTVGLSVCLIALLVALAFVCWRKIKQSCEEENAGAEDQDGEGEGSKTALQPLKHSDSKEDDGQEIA

[2] = molecular target: T1, biotinylated B7-H3 (B7-H3b), immune checkpoint protein; assay: SPR, biotinylated B7-H3 on NeutrAvidin chip, peptide as analyte

B1: Met9Nle variant of B1.1 (methionine to norleucine variant of the selected cyclic, disulfide peptide) (peptide)
peptide: WALQLCHSXFYTCKSG
modifications: norleucine (Nle) at position 9; N-terminal acetylation (ac); lactam bridge Q4-K14; disulfide bond C6-C13
- koff [1]: 0.0448 s⁻¹
- kon [1]: 955000 M⁻¹ s⁻¹
- Kd [2]: 46.9 nM

— patent US20260191974A1, “B7-H3 TARGETING LIGANDS AND METHODS OF USE” (The University of North Carolina at Chapel Hill, priority 2022, published 2026)
